Experimental data from patent US20240016892A1 (SHATTUCK LABS, published 2024).

B1: mouse SIRPα-Fc-4-1BBL chimeric protein (Fc fusion)
chain: KELKVTQPEKSVSVAAGDSTVLNCTLTSLLPVGPIKWYRGVGQSRLLIYSFTGEHFPRVTNVSDATKRNNMDFSIRISNVTPEDAGTYYCVKFQKGPSEPDTEIQSGGGTEVYVLAKPSPPEVSGPADRGIPDQKVNFTCKSHGFSPRNITLKWFKDGQELHHLETTVNPSGKNVSYNISSTVRVVLNSMDVHSKVICEVAHITLDRSPLRGIANLSNFIRVSPTVKVTQQSPTSMNQVNLTCRAERFYPEDLQLIWLENGNVSRNDTPKNLTKNTDGTYNYTSLFLVNSSAHREDVVFTCQVKHDQQPAITRNHTVLGLAHSSDQGSMQTFPGNNATHNWNVPRDCGCKPCICTVPEVSSVFIFPPKPKDVLTITLTPKVTCVVVDISKDDPEVQFSWFVDDVEVHTAQTQPREEQFNSTFRSVSELPIMHQDWLNGKEFKCRVNSAAFPAPIEKTISKTKGRPKAPQVYTIPPPKEQMAKDKVSLTCMITDFFPEDITVEWQWNGQPAENYKNTQPIMDTDGSYFVYSKLNVQKSNWEAGNTFTCSVLHEGLHNHHTEKSLSHSPGIIEGRMDRTEPRPALTITTSPNLGTRENNADQVTPVSHIGCPNTTQQGSPVFAKLLAKNQASLCNTTLNWHSQDGAGSSYLSQGLRYEEDKKELVVDSPGLYYVFLELKLSPTFTNTGHKVQGWVSLVLQAKPQVDDFDNLALTVELFPCSMENKLVDRSWSQLLLLKAGHRLSVGLRAYLHGAQDAYRDWELSYPNTTSFGLFLVKPDNPWE
notes: also called mSIRPα-Fc-4-1BBL
B2: mouse TIGIT-Fc-LIGHT chimeric protein (Fc fusion)
chain: TIDTKRNISAEEGGSVILQCHFSSDTAEVTQVDWKQQDQLLAIYSVDLGWHVASVFSDRVVPGPSLGLTFQSLTMNDTGEYFCTYHTYPGGIYKGRIFLKVQESSDDRNGLAQFQTAPLGVPRDCGCKPCICTVPEVSSVFIFPPKPKDVLTITLTPKVTCVVVDISKDDPEVQFSWFVDDVEVHTAQTQPREEQFNSTFRSVSELPIMHQDWLNGKEFKCRVNSAAFPAPIEKTISKTKGRPKAPQVYTIPPPKEQMAKDKVSLTCMITDFFPEDITVEWQWNGQPAENYKNTQPIMDTDGSYFVYSKLNVQKSNWEAGNTFTCSVLHEGLHNHHTEKSLSHSPGKIEGRMDLHQRLGDIVAHLPDGGKGSWEKLIQDQRSHQANPAAHLTGANASLIGIGGPLLWETRLGLAFLRGLTYHDGALVTMEPGYYYVYSKVQLSGVGCPQGLANGLPITHGLYKRTSRYPKELELLVSRRSPCGRANSSRVWWDSSFLGGVVHLEAGEEVVVRVPGNRLVRPRDGTRSYFGAFMV
notes: also called mTIGIT-Fc-LIGHT; murine TIGIT-Fc-LIGHT chimeric protein

Legend:
[1] = target: T1, mouse 4-1BB-His (mouse, UniProt P20334 24-187); assay: MSD: coat m41BB-His (Acro); detection anti-mouse Sulfo (MSD)
T1 construct: not shown: His tag
T1 sequence (looked up): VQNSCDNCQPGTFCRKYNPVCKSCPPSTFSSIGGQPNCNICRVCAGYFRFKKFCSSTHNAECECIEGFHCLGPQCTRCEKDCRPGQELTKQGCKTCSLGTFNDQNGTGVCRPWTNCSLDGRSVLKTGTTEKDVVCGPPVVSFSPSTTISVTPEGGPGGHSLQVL
Method: (§1) Mouse 4-1BB-His was coated on plates and increasing amounts of the mSIRPα-Fc-4-1BBL, or mSIRPα-Fc-CD40L chimeric proteins were added to the plates for capture by the plate-bound mouse 4-1BB-His. The mSIRPα-Fc-CD40L chimeric protein was used as a negative control for binding to mouse 4-1BB. Binding of the chimeric proteins to 4-1BB-His was detected using an anti-mouse-SULFO-TAG antibody. Binding was assayed using an electrochemiluminescence (ECL) readout.

[2] = target: T2, mouse CD47-His (mouse, UniProt Q61735 19-140, limits assumed); assay: MSD: coat mCD47-His (Acro); detection anti-mouse Sulfo (MSD)
T2 construct: not shown: His tag
T2 sequence (looked up): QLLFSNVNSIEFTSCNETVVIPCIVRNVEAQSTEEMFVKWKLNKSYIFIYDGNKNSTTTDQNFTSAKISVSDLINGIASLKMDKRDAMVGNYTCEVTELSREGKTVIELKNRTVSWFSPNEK
Method: as §1, with “CD47-His” for “4-1BB-His”, “mSIRPα-Fc-4-1BBL” for “mSIRPα-Fc-4-1BBL,”, “CD47-His.” for “4-1BB-His.”, “positive” for “negative”, “CD47.” for “4-1BB.”, “anti-mouse SULFO-TAG” for “anti-mouse-SULFO-TAG”

[3] = target: T3, mouse CD47-Fc (mouse, UniProt Q61735 19-140, limits assumed); assay: MSD dual-binding sandwich: coat mCD47-Fc (Acro); detect m41BB-His (Acro); anti-His Biotin + Streptavidin Sulfo
T3 construct: not shown: Fc; not described
T3 sequence (looked up): T2 sequence (looked up)
Method: To understand whether the mouse SIRPα-Fc-4-1BBL chimeric protein can contemporaneously bind to mouse 4-1BB and CD47, mouse CD47-Fc was coated on plates and increasing amounts of the mSIRPα-Fc-4-1BBL, or PD-1-Fc-4-1BBL chimeric proteins were added to the plates for capture by the plate-bound mouse CD47-Fc. The PD-1-Fc-4-1BBL chimeric protein was used as a negative control. Then, mouse 4-1BB-His was added to the plate for capture by any chimeric protein, which was captured in turn by the mouse CD47-Fc protein. An anti-His-biotin and streptavidin-SULFO-TAG were used for detection. Binding was assayed using an electrochemiluminescence (ECL) readout.

[4] = target: T4, murine recombinant HVEM (mouse, UniProt Q80WM9 39-206); assay: ELISA on recombinant murine targets
T4 construct: also called mouse HVEM
T4 sequence (looked up): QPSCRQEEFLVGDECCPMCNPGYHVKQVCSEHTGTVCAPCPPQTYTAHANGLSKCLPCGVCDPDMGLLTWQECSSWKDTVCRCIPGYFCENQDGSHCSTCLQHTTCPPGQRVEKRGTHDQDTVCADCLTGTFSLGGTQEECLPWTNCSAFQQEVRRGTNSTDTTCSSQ

[5] = target: T5, CHOK1/mLTβR (mouse, UniProt P50284); assay: flow cytometry on CHOK1/mLTβR cells
T5 construct: expressed on the surface of stably transfected CHO-K1 cells; also called cell surface mouse LTβR on CHO-K1/mLTβR cells
T5 sequence (P50284 31-415 limits assumed): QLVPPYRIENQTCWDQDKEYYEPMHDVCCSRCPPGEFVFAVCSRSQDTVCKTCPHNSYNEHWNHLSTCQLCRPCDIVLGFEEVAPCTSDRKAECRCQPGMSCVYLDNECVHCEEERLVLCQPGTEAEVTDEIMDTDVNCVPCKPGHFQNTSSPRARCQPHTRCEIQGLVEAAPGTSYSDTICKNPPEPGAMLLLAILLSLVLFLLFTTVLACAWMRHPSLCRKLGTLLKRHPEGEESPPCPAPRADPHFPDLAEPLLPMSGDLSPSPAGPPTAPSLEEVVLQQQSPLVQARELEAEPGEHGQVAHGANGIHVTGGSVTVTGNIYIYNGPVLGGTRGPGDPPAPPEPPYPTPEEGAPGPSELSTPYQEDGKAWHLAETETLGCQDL

[6] = target: T6, anti-H&L; assay: ELISA: capture anti-H&L; detection anti-Fc-HRP
T6 construct: also called capture antibody of the Fc ELISA panel

[7] = target: T7, murine recombinant LTβR (mouse, UniProt P50284 31-223); assay: ELISA: capture mLTβR-His; detection anti-mLIGHT-Bio
T7 construct: also called mouse LTβR; printed LOUR
T7 sequence (P50284 31-223): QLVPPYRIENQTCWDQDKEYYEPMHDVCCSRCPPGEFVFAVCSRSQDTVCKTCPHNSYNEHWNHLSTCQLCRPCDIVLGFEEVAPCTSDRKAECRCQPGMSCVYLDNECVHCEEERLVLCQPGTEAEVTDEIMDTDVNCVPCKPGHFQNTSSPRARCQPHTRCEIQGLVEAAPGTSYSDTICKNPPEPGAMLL

[8] = target: T8, murine recombinant PVR (mouse); assay: ELISA: capture mCD115/PVR (so in the source); detection anti-Fc-HRP
T8 construct: also called mouse PVR

| Binder | EC50 [1] [nM] | EC50 [2] [nM] | EC50 [3] [nM] | binding result [4] | binding result [5] | EC50 (read off the curve) [6] [nM] | binding result [7] | EC50 (read off the curve) [8] [nM] |
| --- | --- | --- | --- | --- | --- | --- | --- | --- |
| B1 | 0.674 | 0.609 | 22.4 | – | – | – | – | – |
| B2 | – | – | – | binds | binds | ~4 | binds | ~5 |
